Measured values from patent US20180017572A1.

Molecular target: complement factor C1q (UniProt P02745)
Assay: flow cytometry: BT-474 cells with 10 µg/mL antibody, then 10 µg/mL C1q, detected with PE-labeled anti-C1q antibody

complement factor C1q, sequence (P02745 23-245 limits assumed, chain 1 of 3): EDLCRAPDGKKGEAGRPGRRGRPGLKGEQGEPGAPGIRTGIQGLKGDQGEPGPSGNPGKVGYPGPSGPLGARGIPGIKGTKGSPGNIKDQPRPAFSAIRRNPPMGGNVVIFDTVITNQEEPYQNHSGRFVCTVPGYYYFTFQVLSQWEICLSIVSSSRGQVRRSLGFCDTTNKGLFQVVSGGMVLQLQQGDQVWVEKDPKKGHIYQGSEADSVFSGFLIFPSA
complement factor C1q, sequence (P02746 28-253 limits assumed, chain 2 of 3, further chain): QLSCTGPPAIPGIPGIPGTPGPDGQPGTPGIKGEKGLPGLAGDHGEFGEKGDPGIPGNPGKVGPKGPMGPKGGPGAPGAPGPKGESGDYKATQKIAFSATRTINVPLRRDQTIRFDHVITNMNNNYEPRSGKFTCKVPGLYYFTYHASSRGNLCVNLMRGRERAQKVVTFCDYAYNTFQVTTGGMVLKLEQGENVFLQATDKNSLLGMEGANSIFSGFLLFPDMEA
complement factor C1q, sequence (P02747 29-245 limits assumed, chain 3 of 3, further chain): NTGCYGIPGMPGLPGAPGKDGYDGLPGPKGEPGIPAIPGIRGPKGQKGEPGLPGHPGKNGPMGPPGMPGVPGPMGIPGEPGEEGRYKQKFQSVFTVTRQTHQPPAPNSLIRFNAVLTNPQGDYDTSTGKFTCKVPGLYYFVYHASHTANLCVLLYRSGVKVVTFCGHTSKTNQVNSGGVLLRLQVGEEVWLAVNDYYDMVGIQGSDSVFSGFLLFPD

- PE-signal (geomean) (geomean PE-signal): 2160
Substance: combination of trastuzumab and pertuzumab (from UniProt P0DOX5 2-449; P0DOX5 2-449)
